# Columns and labels:
# Assay in all cases: cell-based or functional assay
# [1] = biological target: HIV-1 Env of pseudovirus THRO4156.18 (HIV-1)
# [2] = biological target: HIV-1 Env of pseudovirus ZM214M.PL15 (HIV-1)
# [3] = biological target: HIV-1 Env of pseudovirus 62357_14_D3_4589 (HIV-1)
# [4] = biological target: HIV-1 Env of pseudovirus T251-18 (HIV-1)
# [5] = biological target: HIV-1 Env of pseudovirus 191955_A11 (HIV-1)
# [6] = biological target: HIV-1 Env of pseudovirus 1394C9G1(Rev-) (HIV-1)
# [7] = biological target: HIV-1 Env of pseudovirus T257-31 (HIV-1)
# [8] = biological target: HIV-1 Env of pseudovirus CNE30 (HIV-1)
# [9] = biological target: HIV-1 Env of pseudovirus C3347.c11 (HIV-1)
# [10] = biological target: HIV-1 Env of pseudovirus Ce2010_F5 (HIV-1)
# [11] = biological target: HIV-1 Env of pseudovirus 6540.v4.c1 (HIV-1)
# [12] = biological target: HIV-1 Env of pseudovirus CNE20 (HIV-1)
# [13] = biological target: HIV-1 Env of pseudovirus 231966.c02 (HIV-1)
# [14] = biological target: HIV-1 Env of pseudovirus C1080.c03 (HIV-1)
# [15] = biological target: HIV-1 Env of pseudovirus SC422661.8 (HIV-1)
# [16] = biological target: HIV-1 Env of pseudovirus BJOX010000.06.2 (HIV-1)
# [17] = biological target: HIV-1 Env of pseudovirus P0402_c2_11 (HIV-1)
# [18] = biological target: HIV-1 Env of pseudovirus Du172.17 (HIV-1)
# [19] = biological target: HIV-1 Env of pseudovirus 6952.v1.c20 (HIV-1)
# [20] = biological target: HIV-1 Env of pseudovirus Du156.12 (HIV-1)
# [21] = biological target: HIV-1 Env of pseudovirus CAP45.2.00.G3 (HIV-1)
# [22] = biological target: HIV-1 Env of pseudovirus Q842.d12 (HIV-1)
# [23] = biological target: HIV-1 Env of pseudovirus 246F C1G (HIV-1)
# [24] = biological target: HIV-1 Env of pseudovirus Ce0682_E4 (HIV-1)
# [25] = biological target: HIV-1 Env of pseudovirus 1054_07_TC4_1499 (HIV-1)
# [26] = biological target: HIV-1 Env of pseudovirus CNE58 (HIV-1)
# [27] = biological target: HIV-1 Env of pseudovirus R3265.c06 (HIV-1)
# [28] = biological target: HIV-1 Env of pseudovirus 0260.v5.c36 (HIV-1)
# [29] = biological target: HIV-1 Env of pseudovirus X1632_S2_B10 (HIV-1)
# [30] = biological target: HIV-1 Env of pseudovirus BJOX025000.01.1 (HIV-1)
# [31] = biological target: HIV-1 Env of pseudovirus 6244_13_B5_4576 (HIV-1)
# [32] = biological target: HIV-1 Env of pseudovirus Du422.1 (HIV-1)
# [33] = biological target: HIV-1 Env of pseudovirus X1193_c1 (HIV-1)
# [34] = biological target: HIV-1 Env of pseudovirus 6480.v4.c25 (HIV-1)
# [35] = biological target: HIV-1 Env of pseudovirus C4118.c09 (HIV-1)
# [36] = biological target: HIV-1 Env of pseudovirus ZM109F.PB4 (HIV-1)
substance,measurement,setting,value
N49P6 (antibody),IC50,[1],12.5 µg/mL
same,IC80,[1],38.4 µg/mL
same,MPI,[1],89
same,IC50,[2],0.51 µg/mL
same,IC80,[2],1.8 µg/mL
same,MPI,[2],100
same,IC50,[3],0.098 µg/mL
same,IC80,[3],0.296 µg/mL
same,MPI,[3],100
same,IC50,[4],0.344 µg/mL
same,IC80,[4],0.929 µg/mL
same,MPI,[4],100
same,IC50,[5],0.124 µg/mL
same,IC80,[5],0.344 µg/mL
same,MPI,[5],100
same,IC50,[6],17.5 µg/mL
same,IC80,[6],> 50 µg/mL
same,MPI,[6],80
same,IC50,[7],0.147 µg/mL
same,IC80,[7],0.535 µg/mL
same,MPI,[7],100
same,IC50,[8],0.457 µg/mL
same,IC80,[8],1.54 µg/mL
same,MPI,[8],100
same,IC50,[9],0.08 µg/mL
same,IC80,[9],0.266 µg/mL
same,MPI,[9],100
same,IC50,[10],0.124 µg/mL
same,IC80,[10],0.749 µg/mL
same,MPI,[10],100
same,IC50,[11],14 µg/mL
same,IC80,[11],47.5 µg/mL
same,MPI,[11],81
same,IC50,[12],2.74 µg/mL
same,IC80,[12],15.6 µg/mL
same,MPI,[12],95
same,IC50,[13],0.339 µg/mL
same,IC80,[13],1.62 µg/mL
same,MPI,[13],100
same,IC50,[14],0.181 µg/mL
same,IC80,[14],0.661 µg/mL
same,MPI,[14],100
same,IC50,[15],0.129 µg/mL
same,IC80,[15],0.36 µg/mL
same,MPI,[15],100
same,IC50,[16],0.681 µg/mL
same,IC80,[16],3.53 µg/mL
same,MPI,[16],100
same,IC50,[17],3.54 µg/mL
same,IC80,[17],19 µg/mL
same,MPI,[17],99
same,IC50,[18],20.8 µg/mL
same,IC80,[18],> 50 µg/mL
same,MPI,[18],74
same,IC50,[19],16.9 µg/mL
same,IC80,[19],> 50 µg/mL
same,MPI,[19],78
same,IC50,[20],0.082 µg/mL
same,IC80,[20],0.28 µg/mL
same,MPI,[20],100
same,IC50,[21],21.7 µg/mL
same,IC80,[21],> 50 µg/mL
same,MPI,[21],75
same,IC50,[22],0.034 µg/mL
same,IC80,[22],0.091 µg/mL
same,MPI,[22],100
same,IC50,[23],0.513 µg/mL
same,IC80,[23],2.51 µg/mL
same,MPI,[23],99
same,IC50,[24],0.095 µg/mL
same,IC80,[24],0.315 µg/mL
same,MPI,[24],100
same,IC50,[25],0.624 µg/mL
same,IC80,[25],2.85 µg/mL
same,MPI,[25],100
same,IC50,[26],0.036 µg/mL
same,IC80,[26],0.1 µg/mL
same,MPI,[26],100
same,IC50,[27],0.101 µg/mL
same,IC80,[27],0.443 µg/mL
same,MPI,[27],100
same,IC50,[28],0.485 µg/mL
same,IC80,[28],1.55 µg/mL
same,MPI,[28],100
same,IC50,[29],23.1 µg/mL
same,IC80,[29],> 50 µg/mL
same,MPI,[29],69
same,IC50,[30],14.9 µg/mL
same,IC80,[30],> 50 µg/mL
same,MPI,[30],78
same,IC50,[31],0.095 µg/mL
same,IC80,[31],0.328 µg/mL
same,MPI,[31],100
same,IC50,[32],44 µg/mL
same,IC80,[32],> 50 µg/mL
same,MPI,[32],57
same,IC50,[33],0.074 µg/mL
same,IC80,[33],0.224 µg/mL
same,MPI,[33],100
same,IC50,[34],0.089 µg/mL
same,IC80,[34],0.427 µg/mL
same,MPI,[34],100
same,IC50,[35],0.092 µg/mL
same,IC80,[35],0.243 µg/mL
same,MPI,[35],100
same,IC50,[36],0.084 µg/mL
same,IC80,[36],0.29 µg/mL
same,MPI,[36],99
